Results reported in article PMC10584835.

Molecular target: N-terminal eGFP fused human CHFR mutant lacking forkhead-associated domain (human) (UniProt Q96EP1)
Assay: co-IP; anti-GFP agarose beads (GFP-Trap) pull-down from lysates of HMEC transfected with eGFP-CHFR constructs, 48 h after transfection; 150 ug lysate protein, 2 h at 4 C; immunoblot for endogenous VE-cadherin; ratio of VE-cadherin to GFP-CHFR quantified

Sequence of UniProt Q96EP1 (Q96EP1 whole entry, change not shown, the tested form may be a part): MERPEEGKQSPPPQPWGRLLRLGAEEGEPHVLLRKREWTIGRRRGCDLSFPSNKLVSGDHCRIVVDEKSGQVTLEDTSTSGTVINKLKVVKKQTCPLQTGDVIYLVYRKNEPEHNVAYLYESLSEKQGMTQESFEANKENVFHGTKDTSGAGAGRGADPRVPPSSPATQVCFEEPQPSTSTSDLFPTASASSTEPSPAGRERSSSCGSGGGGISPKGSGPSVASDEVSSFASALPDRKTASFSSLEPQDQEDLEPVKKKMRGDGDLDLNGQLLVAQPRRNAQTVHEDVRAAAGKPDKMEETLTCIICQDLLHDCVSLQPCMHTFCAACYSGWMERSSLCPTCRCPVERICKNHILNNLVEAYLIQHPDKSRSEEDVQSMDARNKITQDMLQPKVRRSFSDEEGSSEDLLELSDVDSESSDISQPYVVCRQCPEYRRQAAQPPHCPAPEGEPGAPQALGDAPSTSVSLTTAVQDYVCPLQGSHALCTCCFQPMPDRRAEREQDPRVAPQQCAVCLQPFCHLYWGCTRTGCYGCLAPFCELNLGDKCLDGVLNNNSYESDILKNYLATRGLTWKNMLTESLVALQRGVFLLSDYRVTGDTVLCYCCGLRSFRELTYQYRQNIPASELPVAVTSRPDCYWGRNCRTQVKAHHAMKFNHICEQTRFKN

B1: VE-cadherin, endogenous in HMEC (natural protein)
chain: DWIWNQMHIDEEKNTSLPHHVGKIKSSVSRKNAKYLLKGEYVGKVFRVDAETGDVFAIERLDRENISEYHLTAVIVDKDTGENLETPSSFTIKVHDVNDNWPVFTHRLFNASVPESSAVGTSVISVTAVDADDPTVGDHASVMYQILKGKEYFAIDNSGRIITITKSLDREKQARYEIVVEARDAQGLRGDSGTATVLVTLQDINDNFPFFTQTKYTFVVPEDTRVGTSVGSLFVEDPDEPQNRMTKYSILRGDYQDAFTIETNPAHNEGIIKPMKPLDYEYIQQYSFIVEATDPTIDLRYMSPPAGNRAQVIINITDVDEPPIFQQPFYHFQLKENQKKPLIGTVLAMDPDAARHSIGYSIRRTSDKGQFFRVTKKGDIYNEKELDREVYPWYNLTVEAKELDSTGTPTGKESIVQVHIEVLDENDNAPEFAKPYQPKVCENAVHGQLVLQISAIDKDITPRNVKFKFILNTENNFTLTDNHDNTANITVKYGQFDREHTKVHFLPVVISDNGMPSRTGTSTLTVAVCKCNEQGEFTFCEDMAAQVGVSIQAVVAILLCILTITVITLLIFLRRRLRKQARAHGKSVPEIHEQLVTYDEEGGGEMDTTSYDVSVLNSVRRGGAKPPRPALDARPSLYAQVQKPPRHAPGAHGGPGEMAAMIEVKKDEADHDGDGPPYDTLHIYGYEGSESIAESLSSLGTDSSDSDVDYDFLNDWGPRFKMLAELYGSDPREELLY
How did the fold binding against WT-CHFR turn out when B1 was run?
The fold binding against WT-CHFR was 2 fold.
